Results as given in patent publication US20190106498A1, “TREATMENT FOR ACUTE MYELOID LEUKEMIA” (priority 2017, published 2019).

How the values were obtained:
[1] = tested on: AML LSCs; assay: Colony plating assay of AML LSCs; type: cell-based, human; details: P6, P8, P11; all disease risk categories
Procedure: (§1) FIGS. 3A-3F Anti-CD70/decitabine co-treatment reduces re-plating capacity of human CD34+CD38− AML stem/progenitor cells. […] Colonies and cells were enumerated after 14 days. (FIG. 3A) Colonies per 1×10^3 plated cells. (FIG. 3B) Cells per colony. (FIG. 3C) Serial re-plating experiments. (d-f) FACS-purified lin-CD90+CD34+CD38− stem/progenitor cells from BM of “healthy” donors were cultured and plated in methylcellulose as described in (a-c). (FIG. 3D) Colonies per 1×10^3 plated cells. (FIG. 3E) Cells per colony. (FIG. 3F) Serial re-plating experiments. Data are represented as mean±S.D. Statistics: One-way-ANOVA. Dunnett's post-test (vs. αCD70/D); *, P<0.05; **, P<0.01; ***, P<0.001.

[2] = tested on: blasts; assay: Phase I/II trial: blasts in bone marrow and peripheral blood (cytomorphology, flow cytometry, MRD); type: in vivo, human
Procedure: FIGS. 6A-6C Bone marrow (BM) blast load was assessed by cytomorphology (FIG. 6A), and flow cytometry using leukemia-associated immunophenotype (LAIP) gating (FIG. 6B) and blast gating (SSClow CD45dim; FIG. 6C). The latter method was used to determine measurable/minimal residual disease (MRD) status of the patient.
FIGS. 7A-7C Peripheral blood (PB) blast load was assessed by cytomorphology (FIG. 7A), and flow cytometry using leukemia-associated immunophenotype (LAIP) gating (FIG. 7B) and blast gating (SSClow CD45 dim; FIG. 7C). The latter method was used to determine measurable/minimal residual disease (MRD) status of the patient.
Minimal residual disease (MRD) assessments were performed on bone marrow aspirates and/or whole blood collected at time points as specified in FIG. 5. Flow cytometry was utilized as the primary method of MRD analysis. Suitable flow cytometry markers for MRD assessment and determining AML subtype include CD16, CD13, CD34, CD117, CD11 b, CD10, HLA-DR, CD45, CD35, CD64, IREM-2, CD36, CD105, CD14, CD33, CD71, CD36, CD105, CD33, CD71, cTdT, CD56, CD7, CD19, cMPO, cLactoferrin, cLysozyme. An additional panel was used as a part of the trial, focusing on CD70, CD27 expression as well as markers indicative of stem cell potential or myeloid differentiation: CD27, CD70, CD34, CD117, CD11 b, HLA-DR, CD45, CD38, and CD123. When available, flow cytometry results were compared to other molecular approaches such as polymerase chain reaction (PCR) test.
For each patient, the number of blasts in bone marrow and peripheral blood were assessed at various time-points as outlined in FIG. 5.
To assess bone marrow blasts, bone marrow aspirates taken at the various time points were analysed. Methylcellulose colony assays using FACS sorted monocytes (mononuclear cells (CD45^dim) were selectively sorted by excluding doublets, dead cells and lymphocytes using Annexin V and antibodies for CD19 and CD4/CD8) were used to assess the number of LSCs in the bone marrow. In addition, bone marrow blast percentages were also assessed by cell morphology and flow cytometric analysis.

[3] = tested on: human AML cells; assay: αCD70/decitabine treatment of AML patient-derived xenografts in NSG mice; type: in vivo; details: αCD70 10 mg/kg, decitabine 1.5 mg/kg/d, 5 days
Procedure: FIGS. 1A-1I αCD70/decitabine combination therapy eradicates human CD34^+CD38^- AML stem/progenitor cells in murine xenografts. 5×10^6 FACS-purified […] cells from BM of newly diagnosed AML patients (patient […]) were injected intravenously into the tail vein of sub-lethally irradiated NSG mice. After engraftment (day 32 (P10) and day 97 (P25) after transplantation), mice were randomized and subjected to treatment with control mAb and 10 mg/kg αCD70 mAb (41D12-D) intraperitoneally (total of 3 injections) or decitabine and (1.5 mg/kg/day) for five consecutive days alone or in combination. One day after the last treatment, animals were sacrificed and blood, spleen and BM were analyzed. (FIG. 1A) Experimental setup. (FIG. 1B) CD70 expression on CD34^+CD38^- AML stem/progenitor cells. Isotype is depicted in grey; CD70 staining in black (P10) and blue (P25). […] (FIG. 1G) Representative FACS plots and (FIG. 1H) quantification indicating the frequency of CD38^- AML cells within […]^loin^-CD90^-CD34+ AML stem/progenitor cell population. […] 32 days after engraftment (engraftment in PB: 14.45+/-0.95%), NSG mice were randomized to treatment with vehicle (Veh), αCD70 mAb (αCD70, ARGX-110, 10 mg/kg), decitabine (D, 1.5 mg/kg/d) or the combination (αCD70/D) for 5 days and bone marrow, spleen and blood were analyzed.

[4] = tested on: healthy stem cells; type: cell-based, human
Procedure: as §1

[5] = patient 1001001, 1 mg/kg with AZA, C3D1
[6] = patient 1001001, 1 mg/kg with AZA, C4D1
[7] = patient 1001002, 1 mg/kg with AZA, C2D17
[8] = patient 1001002, single dose 1 mg/kg

B1: ARGX-110: IgG1 anti-CD70 antibody with defucosylated Fc region; VH SEQ ID NO: 4, VL SEQ ID NO: 8 (antibody, V domains shown)
VH: EVQLVESGGGLVQPGGSLRLSCAASGFTFSVYYMNWVRQAPGKGLEWVSDINNEGGTTYYADSVKGRFTISRDNSKNSLYLQMNSLRAEDTAVYYCARDAGYSNHVPIFDSWGQGTLVTVSS
VL: QAVVTQEPSLTVSPGGTVTLTCGLKSGSVTSDNFPTWYQQTPGQAPRLLIYNTNTRHSGVPDRFSGSILGNKAALTITGAQADDEAEYFCALFISNPSVEFGGGTQLTVLG
modifications: IgG1, defucosylated Fc; Custom antibody fragment
number of colonies formed by AML LSCs [1]: reduce the number of colonies | PB blast percentage ([2]; following monotherapy, C1D1 vs earlier): reduced | bone marrow blasts according to MRD criteria ([2]; in vivo): significantly reduced | bone marrow blast percentage ([2]; majority of patients, by C1D1 following monotherapy): at least partially or completely reduced by C1D1 | BM blasts by flow cytometry [2, 5]: 2.8% | MRD for peripheral blood [2, 5]: 0.3% | minimal residual disease analysis (MRD), bone marrow [2, 5]: 0.2% | peripheral blood blast percentage by cell morphology [2, 6]: 0% | peripheral blood blast percentage by flow cytometry [2, 6]: 0.8% | peripheral blood MRD class ([2]; patient 1001001, 1 mg/kg with AZA, C4D17): MRD-negative | peripheral blood blasts ([2]; patient 1001001, 1 mg/kg with AZA, after first complete cycle (C2D1)): cleared | blast cell populations by cell morphology and flow cytometry ([2]; patient 1001001, single (loading) dose 1 mg/kg): reduction in bone marrow and in peripheral blood | percentage of blasts in peripheral blood by cell morphology [2, 7]: 0% | percentage of blasts in peripheral blood by flow cytometry [2, 7]: 0.8% | overall blast percentage in peripheral blood ([2]; patient 1001002, 1 mg/kg with AZA, end of cycle 1 (C2D1)): approaching zero | overall blast percentage in peripheral blood ([2]; patient 1001002, after loading dose 1 mg/kg (C1D1 vs screening)): fell | percentage of total blasts in bone marrow by cell morphology [2, 8]: an increase was observed | percentage of total blasts in bone marrow by flow cytometry [2, 8]: appeared to be reduced | blast percentage ([2]; patient 1001003, C1D1): stable | peripheral blasts ([2]; patient 1001003, with AZA, 1 cycle (C2D1)): no peripheral blasts | PB blast percentage ([2]; under combination therapy with aza, from C1D1 onwards): further reduced | number of CD34+CD38− and CD34+CD45− cells (LSCs) [3]: reduced both the number of CD34+CD38− cells and of CD34+CD45− cells | total engraftment in the bone marrow, spleen and blood [3]: reduced total engraftment | effect on healthy stem cells (colonies, cells per colony, re-plating) [4]: no effect on healthy cells compared to vehicle alone
